From paper PMC7954794 (2021) come the findings set out here.

First the molecules themselves.
B1: S. cerevisiae Abp1 (full length; SH3 domain 535-592 mutated) / Hua2 (parent complex)
chain 1: MALEPIDYTTHSREIDAEYLKIVRGSDPDTTWLIISPNAKKEYEPESTGSSFHDFLQLFDETKVQYGLARVSPPGSDVEKIIIIGWCPDSAPLKTRASFAANFAAVANNLFKGYHVQVTARDEDDLDENELLMKISNAAGARYSIQTSSKQQGKASTPPVKKSFTPSKSPAPVSKKEPVKTPSPAPAAKISSRVNDNNDDDDWNEPELKERDFDQAPLKPNQSSYKPIGKIDLQKVIAEEKAKEDPRLVQKPTAAGSKIDPSSDIANLKNESKLKRDSEFNSFLGTTKPPSMTESSLKNDDDKVIKGFRNEKSPAQLWAERKAKQNSGNAETKAEAPKPEVPEDEPEGEPDVKDLKSKFEGLAASEKEEEEMENKFAPPPKKSEPTIISPKPFSKPQEPVKAEEAEQPKTDYKKIGNPLPGMHIEADNEEEPEENDDDWDDDEDEAAQPPLPSRNVASGAPVQKEEPEQEEIAPSLPSRNSIPAPKQEEAPEQAPEEEIEEEAEEAAPQLPSRSSAAPPPPPRRATPEKKPKENPWATAEYDYDAAEDNELTFVENDKIINIEFVDDDWWLGELEKDGSKGLFPSNYVSLGN
chain 2: MQQTKFGKMYLDHDSVVEYSEDEIVEADRITLGYKKRLSMIENQMRHLLEDFSLDVQQIEPILADLQKYYDAFLQLLQKRNKSLQCKRSTHQPVPSPMNSQTSTNAKVNLSGKLMKFQLNSVQKFDEENILRILQNKIEFEHYFQIDKGKKQKVLLLAVYQCLNGPTRLHKVLNIEGIIHNNSIRTILGKQVSSSKWTVFLYDVKLVLLAHRQDVPNLETSKMIVRYGDLFPCALYFKDHTAY

The variants in the experiment derive from B1. As to the kind of experiment: DHFR protein-fragment complementation in yeast (Abp1-DHFR F[1,2] x partner-DHFR F[3]), deep mutational scanning, second methotrexate selection vs reference; S. cerevisiae, DHFR-PCA selection in liquid with methotrexate at 30 C, two 72 h selections (the score uses the second); reference = the pre-selection culture.
Take chain 1 E563I: the screen value was -1.57 DMS score: mean over two replicates of log2(f_test/f_ref + 0.5)/ln 2, minus the synonymous-codon median (not a log2 …. Next, chain 1 D568T: -2.96 DMS score: mean over two replicates of log2(f_test/f_ref + 0.5)/ln 2, minus the synonymous-codon median (not a log2 …; chain 1 D568F: -2.94 DMS score: mean over two replicates of log2(f_test/f_ref + 0.5)/ln 2, minus the synonymous-codon median (not a log2 …. Then chain 1 G591A, with 0.673 DMS score: mean over two replicates of log2(f_test/f_ref + 0.5)/ln 2, minus the synonymous-codon median (not a log2 …; and chain 1 G591P, with 0.961 DMS score: mean over two replicates of log2(f_test/f_ref + 0.5)/ln 2, minus the synonymous-codon median (not a log2 …; and chain 1 G591E, with 1.01 DMS score: mean over two replicates of log2(f_test/f_ref + 0.5)/ln 2, minus the synonymous-codon median (not a log2 ….

Turning to chain 1 G591R, the screen value is -0.62 DMS score: mean over two replicates of log2(f_test/f_ref + 0.5)/ln 2, minus the synonymous-codon median (not a log2 …. Then chain 1 G591N, with 0.941 DMS score: mean over two replicates of log2(f_test/f_ref + 0.5)/ln 2, minus the synonymous-codon median (not a log2 …; and chain 1 G591T, with 0.63 DMS score: mean over two replicates of log2(f_test/f_ref + 0.5)/ln 2, minus the synonymous-codon median (not a log2 …. Then chain 1 E547T, with -2.64 DMS score: mean over two replicates of log2(f_test/f_ref + 0.5)/ln 2, minus the synonymous-codon median (not a log2 ….

On to chain 1 E547L, for which the screen value is -0.584 DMS score: mean over two replicates of log2(f_test/f_ref + 0.5)/ln 2, minus the synonymous-codon median (not a log2 …. Next, chain 1 E547D: -0.281 DMS score: mean over two replicates of log2(f_test/f_ref + 0.5)/ln 2, minus the synonymous-codon median (not a log2 …; chain 1 E547N: -1.94 DMS score: mean over two replicates of log2(f_test/f_ref + 0.5)/ln 2, minus the synonymous-codon median (not a log2 …. Turning to chain 1 D566K, the screen value is -2.34 DMS score: mean over two replicates of log2(f_test/f_ref + 0.5)/ln 2, minus the synonymous-codon median (not a log2 …. chain 1 D566A: the screen value is -2.64 DMS score: mean over two replicates of log2(f_test/f_ref + 0.5)/ln 2, minus the synonymous-codon median (not a log2 ….

With chain 1 D544G, the screen value is -0.178 DMS score: mean over two replicates of log2(f_test/f_ref + 0.5)/ln 2, minus the synonymous-codon median (not a log2 …. Next, chain 1 D544A: 0.497 DMS score: mean over two replicates of log2(f_test/f_ref + 0.5)/ln 2, minus the synonymous-codon median (not a log2 …. For the variant chain 1 D544E, the screen value is -0.1 DMS score: mean over two replicates of log2(f_test/f_ref + 0.5)/ln 2, minus the synonymous-codon median (not a log2 …. Consider chain 1 S585K, for which the screen value was -2.89 DMS score: mean over two replicates of log2(f_test/f_ref + 0.5)/ln 2, minus the synonymous-codon median (not a log2 …. For chain 1 S585R, the screen value was -1.55 DMS score: mean over two replicates of log2(f_test/f_ref + 0.5)/ln 2, minus the synonymous-codon median (not a log2 …. Next, chain 1 S585H: -2.79 DMS score: mean over two replicates of log2(f_test/f_ref + 0.5)/ln 2, minus the synonymous-codon median (not a log2 …; chain 1 S585A: 1.11 DMS score: mean over two replicates of log2(f_test/f_ref + 0.5)/ln 2, minus the synonymous-codon median (not a log2 …; chain 1 S585V: -0.716 DMS score: mean over two replicates of log2(f_test/f_ref + 0.5)/ln 2, minus the synonymous-codon median (not a log2 …. Next, chain 1 T538E: -0.61 DMS score: mean over two replicates of log2(f_test/f_ref + 0.5)/ln 2, minus the synonymous-codon median (not a log2 …; chain 1 T538S: -0.596 DMS score: mean over two replicates of log2(f_test/f_ref + 0.5)/ln 2, minus the synonymous-codon median (not a log2 …. On to chain 1 T538M, for which the screen value was 0.283 DMS score: mean over two replicates of log2(f_test/f_ref + 0.5)/ln 2, minus the synonymous-codon median (not a log2 …. Then chain 1 T538F, with 0.0744 DMS score: mean over two replicates of log2(f_test/f_ref + 0.5)/ln 2, minus the synonymous-codon median (not a log2 …; and chain 1 T538Q, with -0.259 DMS score: mean over two replicates of log2(f_test/f_ref + 0.5)/ln 2, minus the synonymous-codon median (not a log2 …; and chain 1 W536C, with -0.449 DMS score: mean over two replicates of log2(f_test/f_ref + 0.5)/ln 2, minus the synonymous-codon median (not a log2 ….

For the variant chain 1 W536T, the screen value was -0.062 DMS score: mean over two replicates of log2(f_test/f_ref + 0.5)/ln 2, minus the synonymous-codon median (not a log2 …. Regarding chain 1 W536S, the screen value is -0.564 DMS score: mean over two replicates of log2(f_test/f_ref + 0.5)/ln 2, minus the synonymous-codon median (not a log2 …. Next, chain 1 W536F: -0.302 DMS score: mean over two replicates of log2(f_test/f_ref + 0.5)/ln 2, minus the synonymous-codon median (not a log2 …. Next, chain 1 W536Q: -0.538 DMS score: mean over two replicates of log2(f_test/f_ref + 0.5)/ln 2, minus the synonymous-codon median (not a log2 ….

With chain 1 F553I, the screen value is 0.88 DMS score: mean over two replicates of log2(f_test/f_ref + 0.5)/ln 2, minus the synonymous-codon median (not a log2 …. chain 1 L574R: the screen value was 0.641 DMS score: mean over two replicates of log2(f_test/f_ref + 0.5)/ln 2, minus the synonymous-codon median (not a log2 ….

On to chain 1 L574K, for which the screen value was 0.584 DMS score: mean over two replicates of log2(f_test/f_ref + 0.5)/ln 2, minus the synonymous-codon median (not a log2 …. Next, chain 1 L574N: 0.59 DMS score: mean over two replicates of log2(f_test/f_ref + 0.5)/ln 2, minus the synonymous-codon median (not a log2 …; chain 1 L574V: -1.03 DMS score: mean over two replicates of log2(f_test/f_ref + 0.5)/ln 2, minus the synonymous-codon median (not a log2 ….

As for chain 1 A546I, the screen value is 0.793 DMS score: mean over two replicates of log2(f_test/f_ref + 0.5)/ln 2, minus the synonymous-codon median (not a log2 …. Then chain 1 A546S, with 0.374 DMS score: mean over two replicates of log2(f_test/f_ref + 0.5)/ln 2, minus the synonymous-codon median (not a log2 …; and chain 1 A546W, with -0.986 DMS score: mean over two replicates of log2(f_test/f_ref + 0.5)/ln 2, minus the synonymous-codon median (not a log2 …. Then chain 1 A546E, with 0.502 DMS score: mean over two replicates of log2(f_test/f_ref + 0.5)/ln 2, minus the synonymous-codon median (not a log2 …; and chain 1 A546T, with 0.35 DMS score: mean over two replicates of log2(f_test/f_ref + 0.5)/ln 2, minus the synonymous-codon median (not a log2 …; and chain 1 A546K, with -0.851 DMS score: mean over two replicates of log2(f_test/f_ref + 0.5)/ln 2, minus the synonymous-codon median (not a log2 …. Next, chain 1 A546D: 0.862 DMS score: mean over two replicates of log2(f_test/f_ref + 0.5)/ln 2, minus the synonymous-codon median (not a log2 …; chain 1 A546N: -0.272 DMS score: mean over two replicates of log2(f_test/f_ref + 0.5)/ln 2, minus the synonymous-codon median (not a log2 …; chain 1 D548F: -0.0924 DMS score: mean over two replicates of log2(f_test/f_ref + 0.5)/ln 2, minus the synonymous-codon median (not a log2 …. Regarding chain 1 D548E, the screen value was -0.357 DMS score: mean over two replicates of log2(f_test/f_ref + 0.5)/ln 2, minus the synonymous-codon median (not a log2 …. Next, chain 1 D548L: -0.0418 DMS score: mean over two replicates of log2(f_test/f_ref + 0.5)/ln 2, minus the synonymous-codon median (not a log2 ….

As for chain 1 D548S, the screen value is 0.431 DMS score: mean over two replicates of log2(f_test/f_ref + 0.5)/ln 2, minus the synonymous-codon median (not a log2 …. Then chain 1 L582R, with -1.77 DMS score: mean over two replicates of log2(f_test/f_ref + 0.5)/ln 2, minus the synonymous-codon median (not a log2 ….

As to chain 1 L582I, the screen value was -1.44 DMS score: mean over two replicates of log2(f_test/f_ref + 0.5)/ln 2, minus the synonymous-codon median (not a log2 …. On to chain 1 D567N, for which the screen value was -1.8 DMS score: mean over two replicates of log2(f_test/f_ref + 0.5)/ln 2, minus the synonymous-codon median (not a log2 …. Next, chain 1 N556K: -0.169 DMS score: mean over two replicates of log2(f_test/f_ref + 0.5)/ln 2, minus the synonymous-codon median (not a log2 ….

With chain 1 N556A, the screen value was -0.361 DMS score: mean over two replicates of log2(f_test/f_ref + 0.5)/ln 2, minus the synonymous-codon median (not a log2 ….

For chain 1 N556Y, the screen value is 0.313 DMS score: mean over two replicates of log2(f_test/f_ref + 0.5)/ln 2, minus the synonymous-codon median (not a log2 …. Then chain 1 N556S, with 0.415 DMS score: mean over two replicates of log2(f_test/f_ref + 0.5)/ln 2, minus the synonymous-codon median (not a log2 …; and chain 1 N556D, with 0.175 DMS score: mean over two replicates of log2(f_test/f_ref + 0.5)/ln 2, minus the synonymous-codon median (not a log2 …. Then chain 1 K580C, with -0.508 DMS score: mean over two replicates of log2(f_test/f_ref + 0.5)/ln 2, minus the synonymous-codon median (not a log2 …; and chain 1 K580V, with 0.0627 DMS score: mean over two replicates of log2(f_test/f_ref + 0.5)/ln 2, minus the synonymous-codon median (not a log2 …; and chain 1 K580I, with -0.165 DMS score: mean over two replicates of log2(f_test/f_ref + 0.5)/ln 2, minus the synonymous-codon median (not a log2 …. Then chain 1 K580M, with -0.619 DMS score: mean over two replicates of log2(f_test/f_ref + 0.5)/ln 2, minus the synonymous-codon median (not a log2 …; and chain 1 K580A, with -0.331 DMS score: mean over two replicates of log2(f_test/f_ref + 0.5)/ln 2, minus the synonymous-codon median (not a log2 …; and chain 1 K580H, with -0.129 DMS score: mean over two replicates of log2(f_test/f_ref + 0.5)/ln 2, minus the synonymous-codon median (not a log2 …. Regarding chain 1 D542P, the screen value is 0.905 DMS score: mean over two replicates of log2(f_test/f_ref + 0.5)/ln 2, minus the synonymous-codon median (not a log2 …. Next, chain 1 D542C: 0.23 DMS score: mean over two replicates of log2(f_test/f_ref + 0.5)/ln 2, minus the synonymous-codon median (not a log2 ….

As for chain 1 D542A, the screen value was 0.327 DMS score: mean over two replicates of log2(f_test/f_ref + 0.5)/ln 2, minus the synonymous-codon median (not a log2 …. Then chain 1 D542E, with 0.0251 DMS score: mean over two replicates of log2(f_test/f_ref + 0.5)/ln 2, minus the synonymous-codon median (not a log2 …; and chain 1 K558S, with -0.847 DMS score: mean over two replicates of log2(f_test/f_ref + 0.5)/ln 2, minus the synonymous-codon median (not a log2 ….
